B1: MBP–Duo1 complex (complex, S. cerevisiae)
chain 1: MSEDKAKLGTTRSATEYRLSIGSAPTSRRSSMGESSSLMKFADQEGLTSSVGEYNENTIQQLLLPKIRELSDSIITLDSNFTRLNFIHESLADLNESLGSLLYGIMSNSWCVEFSQAPHDIQDDLIAIKQLKSLEDEKNNLVMELSNMERGIKRKKDEQGENDLAKASQNKQFNQPLFPSSQVRKYRSYDNRDKRKPSKIGNNLQVENEEDYEDDTSSEASFVLNPTNIGMSKSSQGHVTKTTRLNNNTNSKLRRKSILHTIRNSIASGADLPIENDNVVNLGDLHPNNRISLGSGAARVVNGPVTKNRNSMFSGRAERKPTESRHSVAKKTEKKINTRPPFR
chain 2: MSEQSQLDDSTIDKLIPQIFNEMRSNLNNTTNKFPKSTGGGASDNISANSNSIRSFNSITTQSLLKESESLDKITAMIKNVTAALKNNLPVYVNQVHEVCKSTNSILDSWINIHSQAGYIHKLMSDQTYLKLINDRLHNENVNTNDEDGSTLHNVIALKKKEILDLRQKLENRKGEKDAAPAKPPNQGLNPRYGVQSGRRPVPSAGISNNGRVRKTHVPASKRPSGIPRVTNRWTKPTASSSRKMFR
chain 3: MDSASKEETLEKLDQEITVNLQKIDSNLSFCFHKITQDIIPHVATYSEICERIMDSTEWLGTMFQETGLVNLQANAAAPVGNAPVKSLVSNNVGIFPTSAEEASRQSQTDNGPNEADSAVHVNRDVHSMFNNDSIDDFHTANITSTGQILKLPDSSDEDTGSEAVPSREQTDLTGEGHGGADDEQDESTIQRQSRKRKISLLLQQQYGSSSSMVPSPIVPNKMRKQLAHEEHINNDGDNDDENSNNIESSPLKQGHHHPKGQADDNNEGPDEEESTKEVPKPGTIIHFSTNR
chain 4: MGESLDRCIDDINRAVDSMSTLYFKPPGIFHNAILQGASNKASIRKDITRLIKDCNHDEAYLLFKVNPEKQSVSRRDGKEGVFDYVIKRDTDMKRNRRLGRPGEKPIIHVPKEVYLNKDRLDLNNKRRRTATTSGGGLNGFIFDTDLIGSSVISNSSSGTFKALSAVFKDDPQIQRLLYALENGSVLMEEESNNQRRKTIFVEDFPTDLILKVMAEVTDLWPLTEFKQDYDQLYHNYEQLSSKLRFIKKEVLLQDDRLKTMSQYHPSSSHDVAKIIRKEKDEIRRLEMEIANLQE
chain 5: MTDALEQSVLALEGTVSVLKDSVESLKCANEPSTNLASTMLQTKRVFRLVPEYDVERSKLDLIEEVEPLVRTLGDKLRKSMGRMQRELDTLQQTYELNDLRLKKNISMDDDDALNSPDMGQEYEGRDADDVVMMASSTNEELEELKKLKEKKKQLENKLEILKQK
chain 6: MMASTSNDEEKLISTTDKYFIEQRNIVLQEINETMNSILNGLNGLNISLESSIAVGREFQSVSDLWKTLYDGLESLSDEAPIDEQPTLSQSKTK
chain 7: MDSIDEQIAIKRKELQSLQKITSLTDGLKIQLTELNEQIKEMGMNADSVAQLMNNWDSIINNISQASLGLLQYAEGDYEIGPWKDSKKKESEQSNETGLEAQENDKNDEDNDEDEDLVPLPETMVRIRVDGNE
chain 8: MEHNLSPLQQEVLDKYKQLSLDLKALDETIKELNYSQHRQQHSQQETVSPDEILQEMRDIEVKIGLVGTLLKGSVYSLILQRKQEQESLGSNSK
chain 9: MENPHEQVQANILSRIIGNVKRLNESVAILNQELVTINNRNKNLEIMGAICDNYHSSVQFNLEATNNKKPPL
chain 10: MNANKQRQYNQLAHELRELQTNLQETTKQLDIMSKQCNENLVGQLGKVHGSWLIGSYIYYMEQMLGKTQ
B2: MBP–Spc19 complex (complex, S. cerevisiae)
chain 1: MSEDKAKLGTTRSATEYRLSIGSAPTSRRSSMGESSSLMKFADQEGLTSSVGEYNENTIQQLLLPKIRELSDSIITLDSNFTRLNFIHESLADLNESLGSLLYGIMSNSWCVEFSQAPHDIQDDLIAIKQLKSLEDEKNNLVMELSNMERGIKRKKDEQGENDLAKASQNKQFNQPLFPSSQVRKYRSYDNRDKRKPSKIGNNLQVENEEDYEDDTSSEASFVLNPTNIGMSKSSQGHVTKTTRLNNNTNSKLRRKSILHTIRNSIASGADLPIENDNVVNLGDLHPNNRISLGSGAARVVNGPVTKNRNSMFSGRAERKPTESRHSVAKKTEKKINTRPPFR
chain 2: MSEQSQLDDSTIDKLIPQIFNEMRSNLNNTTNKFPKSTGGGASDNISANSNSIRSFNSITTQSLLKESESLDKITAMIKNVTAALKNNLPVYVNQVHEVCKSTNSILDSWINIHSQAGYIHKLMSDQTYLKLINDRLHNENVNTNDEDGSTLHNVIALKKKEILDLRQKLENRKGEKDAAPAKPPNQGLNPRYGVQSGRRPVPSAGISNNGRVRKTHVPASKRPSGIPRVTNRWTKPTASSSRKMFR
chain 3: MDSASKEETLEKLDQEITVNLQKIDSNLSFCFHKITQDIIPHVATYSEICERIMDSTEWLGTMFQETGLVNLQANAAAPVGNAPVKSLVSNNVGIFPTSAEEASRQSQTDNGPNEADSAVHVNRDVHSMFNNDSIDDFHTANITSTGQILKLPDSSDEDTGSEAVPSREQTDLTGEGHGGADDEQDESTIQRQSRKRKISLLLQQQYGSSSSMVPSPIVPNKMRKQLAHEEHINNDGDNDDENSNNIESSPLKQGHHHPKGQADDNNEGPDEEESTKEVPKPGTIIHFSTNR
chain 4: MGESLDRCIDDINRAVDSMSTLYFKPPGIFHNAILQGASNKASIRKDITRLIKDCNHDEAYLLFKVNPEKQSVSRRDGKEGVFDYVIKRDTDMKRNRRLGRPGEKPIIHVPKEVYLNKDRLDLNNKRRRTATTSGGGLNGFIFDTDLIGSSVISNSSSGTFKALSAVFKDDPQIQRLLYALENGSVLMEEESNNQRRKTIFVEDFPTDLILKVMAEVTDLWPLTEFKQDYDQLYHNYEQLSSKLRFIKKEVLLQDDRLKTMSQYHPSSSHDVAKIIRKEKDEIRRLEMEIANLQE
chain 5: MTDALEQSVLALEGTVSVLKDSVESLKCANEPSTNLASTMLQTKRVFRLVPEYDVERSKLDLIEEVEPLVRTLGDKLRKSMGRMQRELDTLQQTYELNDLRLKKNISMDDDDALNSPDMGQEYEGRDADDVVMMASSTNEELEELKKLKEKKKQLENKLEILKQK
chain 6: MMASTSNDEEKLISTTDKYFIEQRNIVLQEINETMNSILNGLNGLNISLESSIAVGREFQSVSDLWKTLYDGLESLSDEAPIDEQPTLSQSKTK
chain 7: MDSIDEQIAIKRKELQSLQKITSLTDGLKIQLTELNEQIKEMGMNADSVAQLMNNWDSIINNISQASLGLLQYAEGDYEIGPWKDSKKKESEQSNETGLEAQENDKNDEDNDEDEDLVPLPETMVRIRVDGNE
chain 8: MEHNLSPLQQEVLDKYKQLSLDLKALDETIKELNYSQHRQQHSQQETVSPDEILQEMRDIEVKIGLVGTLLKGSVYSLILQRKQEQESLGSNSK
chain 9: MENPHEQVQANILSRIIGNVKRLNESVAILNQELVTINNRNKNLEIMGAICDNYHSSVQFNLEATNNKKPPL
chain 10: MNANKQRQYNQLAHELRELQTNLQETTKQLDIMSKQCNENLVGQLGKVHGSWLIGSYIYYMEQMLGKTQ
B3: MBP–Spc34 complex (complex, S. cerevisiae)
chain 1: MSEDKAKLGTTRSATEYRLSIGSAPTSRRSSMGESSSLMKFADQEGLTSSVGEYNENTIQQLLLPKIRELSDSIITLDSNFTRLNFIHESLADLNESLGSLLYGIMSNSWCVEFSQAPHDIQDDLIAIKQLKSLEDEKNNLVMELSNMERGIKRKKDEQGENDLAKASQNKQFNQPLFPSSQVRKYRSYDNRDKRKPSKIGNNLQVENEEDYEDDTSSEASFVLNPTNIGMSKSSQGHVTKTTRLNNNTNSKLRRKSILHTIRNSIASGADLPIENDNVVNLGDLHPNNRISLGSGAARVVNGPVTKNRNSMFSGRAERKPTESRHSVAKKTEKKINTRPPFR
chain 2: MSEQSQLDDSTIDKLIPQIFNEMRSNLNNTTNKFPKSTGGGASDNISANSNSIRSFNSITTQSLLKESESLDKITAMIKNVTAALKNNLPVYVNQVHEVCKSTNSILDSWINIHSQAGYIHKLMSDQTYLKLINDRLHNENVNTNDEDGSTLHNVIALKKKEILDLRQKLENRKGEKDAAPAKPPNQGLNPRYGVQSGRRPVPSAGISNNGRVRKTHVPASKRPSGIPRVTNRWTKPTASSSRKMFR
chain 3: MDSASKEETLEKLDQEITVNLQKIDSNLSFCFHKITQDIIPHVATYSEICERIMDSTEWLGTMFQETGLVNLQANAAAPVGNAPVKSLVSNNVGIFPTSAEEASRQSQTDNGPNEADSAVHVNRDVHSMFNNDSIDDFHTANITSTGQILKLPDSSDEDTGSEAVPSREQTDLTGEGHGGADDEQDESTIQRQSRKRKISLLLQQQYGSSSSMVPSPIVPNKMRKQLAHEEHINNDGDNDDENSNNIESSPLKQGHHHPKGQADDNNEGPDEEESTKEVPKPGTIIHFSTNR
chain 4: MGESLDRCIDDINRAVDSMSTLYFKPPGIFHNAILQGASNKASIRKDITRLIKDCNHDEAYLLFKVNPEKQSVSRRDGKEGVFDYVIKRDTDMKRNRRLGRPGEKPIIHVPKEVYLNKDRLDLNNKRRRTATTSGGGLNGFIFDTDLIGSSVISNSSSGTFKALSAVFKDDPQIQRLLYALENGSVLMEEESNNQRRKTIFVEDFPTDLILKVMAEVTDLWPLTEFKQDYDQLYHNYEQLSSKLRFIKKEVLLQDDRLKTMSQYHPSSSHDVAKIIRKEKDEIRRLEMEIANLQE
chain 5: MTDALEQSVLALEGTVSVLKDSVESLKCANEPSTNLASTMLQTKRVFRLVPEYDVERSKLDLIEEVEPLVRTLGDKLRKSMGRMQRELDTLQQTYELNDLRLKKNISMDDDDALNSPDMGQEYEGRDADDVVMMASSTNEELEELKKLKEKKKQLENKLEILKQK
chain 6: MMASTSNDEEKLISTTDKYFIEQRNIVLQEINETMNSILNGLNGLNISLESSIAVGREFQSVSDLWKTLYDGLESLSDEAPIDEQPTLSQSKTK
chain 7: MDSIDEQIAIKRKELQSLQKITSLTDGLKIQLTELNEQIKEMGMNADSVAQLMNNWDSIINNISQASLGLLQYAEGDYEIGPWKDSKKKESEQSNETGLEAQENDKNDEDNDEDEDLVPLPETMVRIRVDGNE
chain 8: MEHNLSPLQQEVLDKYKQLSLDLKALDETIKELNYSQHRQQHSQQETVSPDEILQEMRDIEVKIGLVGTLLKGSVYSLILQRKQEQESLGSNSK
chain 9: MENPHEQVQANILSRIIGNVKRLNESVAILNQELVTINNRNKNLEIMGAICDNYHSSVQFNLEATNNKKPPL
chain 10: MNANKQRQYNQLAHELRELQTNLQETTKQLDIMSKQCNENLVGQLGKVHGSWLIGSYIYYMEQMLGKTQ

Target: the molecule itself
Assay: negative-stain EM with 2D class averages

Stoichiometry N, 2:
B1
B2
B3
